# The RNAGym collection of RNA variant scans (doi:10.1021/acssynbio.7b00057)
# B1: Pistol ribozyme (parent)
# chain: GGGUCGUUGUUCCAUAAUCGCGUGGAUAUGGCACGCAAGUUUCUACCGGGCACCGUAAAUGUCCGACUGGAGCCGUUCGGGCGGCUAUAAACAGACCUCAGGCCCGAAGCGUGGCGGCACCUGCCGCCGGUGGUAAAAAAGAUCGGAAGAGCACACGUCU
# Variants of: B1
# Assay: aptazyme ON/OFF ratio, guanine; higher = stronger switching; co-transcriptional cleavage with and without guanine
row,Variant,aptazyme ON/OFF ratio
1,U7C G9A U10G U11G C12U C13U,1.21
2,U7C G9A U10G U11G C12U C13A,1.14
3,U7C G9A U10G U11G C12U C13G,1.05
4,U7C G9A C12A C13G,1.11
5,U7C G9A C12A C13U,1.25
6,U7C G9A C12A C13A,1.24
7,U7C G9A U10C U11G C12A C13G,1.15
8,U7C G9A U10C U11G C12A C13A,1.21
9,U7C G9A U10C U11G C12A C13U,1.08
10,U7C G9A,1.17
11,U7C G9A U11A C12A C13A,1.24
12,U7C G9A U11A C12A C13U,1.21
13,U7C G9A U11A C12A C13G,1.12
14,U7C G9A U11G C12A C13A,1.22
15,U7C G9A U10A C12G C13A,1.35
16,U7C G9A U10A C12G C13G,1.18
17,U7C G9A U10A C12G C13U,1.21
18,U7C G9A U10C C12G,1.2
19,U7C G9A U10C C12A,1.27
20,U7C G9A U10C C12U,1.2
21,U7C G9A U10C U11A C13A,1.18
22,U7C G9A U10C U11A C13G,1.12
23,U7C G9A U10C U11A C13U,1.33
24,U7C G9A U10C C13U,1.96

row,Variant,aptazyme ON/OFF ratio
1,U7C G9A U10C C13G,1.06
2,U7C G9A U10C C13A,1.07
3,U7A U11C C12U,1.43
4,U7A U11C C12G,1.08
5,U7A U11C C12A,1.39
6,U7C,1.31
7,U7C G9A U10C C12A C13U,1.31
8,U7C G9A U10C C12A C13A,1.38
9,U7C G9A U10C C12A C13G,1.17
10,U7C G9A U10A U11A C13A,1.08
11,U7C G9A U10A U11A C13U,1.16
12,U7C G9A U10A U11A C13G,1.04
13,U7C G9A U10G C12A C13A,1.15
14,U7C G9A U10G C12A C13G,1.08
15,U7C G9A U10G C12A C13U,1.19
16,U7C G9A U10G U11G C12G C13U,1.07
17,U7C G9A U10G U11G C12G C13A,1.07
18,U7C G9A U10G U11G C12G C13G,1.05
19,U7C G9A U10C U11C C12A C13A,1.07
20,U7C G9A U10C U11C C12A C13G,1.15
21,U7C G9A U10C U11C C12A C13U,1.16
22,U7C G9A U10C U11G C12G C13U,1.09
23,U7C G9A U10C U11G C12G C13G,1.11
24,U7C G9A U10C U11G C12G C13A,1.14

row,Variant,aptazyme ON/OFF ratio
1,U7C G9A U10C C12G C13U,1.15
2,U7C G9A U10C C12G C13A,1.26
3,U7C G9A U10C C12G C13G,1.26
4,U7C C12A,1.61
5,U7C C12U,1.73
6,U7C C12G,1.85
7,U7C G9A U10G U11C C13U,1.06
8,U7C G9A U10G U11C C13G,1.03
9,U7C G9A U10G U11C C13A,1.24
10,U7C G9A U11A C13A,1.21
11,U7C G9A U11A C13G,1.09
12,U7C G9A U11A C13U,1.13
13,U7C G9A U10C U11A,2.6
14,U7C G9A U10C U11C,1.12
15,U7C G9A U10C U11G,1.42
16,U7C G9A U10C U11A C12A C13U,1.16
17,U7C G9A U10C U11A C12A C13A,1.12
18,U7C G9A U10C U11A C12A C13G,1.22
19,U7C G9A U11G C12A,1.08
20,U7C G9A U11C C12G C13G,1.17
21,U7C G9A U11C C12G C13A,1.29
22,U7C G9A U11C C12G C13U,1.18
23,U7A U11C C12A C13G,1.22
24,U7A U11C C12A C13U,1.19

row,Variant,aptazyme ON/OFF ratio
1,U7A U11C C12A C13A,1.35
2,U7C G9A U10C U11A C12U C13U,1.39
3,U7C G9A U10C U11A C12U C13G,1.22
4,U7C G9A U10C U11A C12U C13A,1.21
5,U7C G9A U11A C12G C13U,1.27
6,U7C G9A U11A C12G C13A,1.15
7,U7C G9A U11A C12G C13G,1.19
8,U7A U10G U11G C13U,1.27
9,U7A U10G U11G C13G,1.16
10,U7A U10G U11G C13A,1.12
11,U7A U11G,1.17
12,U7A U11A,1.24
13,U7A U11C,1.29
14,U7C G9A U10A,1.88
15,U7C G9A U10C,4.55
16,U7C G9A U10G,1.42
17,U7C G9A U10A U11G C12A C13U,1.15
18,U7C G9A U10A U11G C12A C13G,1.11
19,U7C G9A U10A U11G C12A C13A,1.08
20,U7C C13U,1.18
21,U7C C13A,1.14
22,U7C C13G,1.05
23,U7C G9A U10C U11C C12G C13G,1.12
24,U7C G9A U10C U11C C12G C13U,1.04

row,Variant,aptazyme ON/OFF ratio
1,U7C G9A U10C U11C C12G C13A,1.09
2,U7C G9A U10A U11G C13A,1.07
3,U7C G9A U10A U11G C13U,1.25
4,U7C G9A U10A U11G C13G,1.02
5,U7C G9A U10A U11C C12A C13G,1.1
6,U7C G9A U10A U11C C12A C13A,1.1
7,U7C G9A U10A U11C C12A C13U,1.24
8,U7C G9A U10G U11A,1.06
9,U7C G9A U10G U11G,1.09
10,U7C G9A U10G U11C,1.08
11,U7C G9A U10G U11C C12U,1.18
12,U7C G9A U10G U11C C12G,1.32
13,U7C G9A U10G U11C C12A,1.28
14,U7C G9A U10A U11A C12G C13A,1.17
15,U7C G9A U10A U11A C12G C13U,1.19
16,U7C G9A U10A U11A C12G C13G,1.22
17,U7C G9A U10G U11A C12G C13G,1.31
18,U7C G9A U10G U11A C12G C13A,1.15
19,U7C G9A U10G U11A C12G C13U,1.25
20,U7C G9A U10G U11C C12U C13U,1.21
21,U7C G9A U10G U11C C12U C13A,1.2
22,U7C G9A U10G U11C C12U C13G,1.09
23,U7C G9A U10A U11C C13G,1.04
24,U7C G9A U10A U11C C13U,1.07

row,Variant,aptazyme ON/OFF ratio
1,U7C G9A U10A U11C C13A,1.03
2,U7A U11C C13G,1.07
3,U7A U11C C13A,1.19
4,U7A U11C C13U,1.21
5,U7C G9A U10A C12U C13U,1.25
6,U7C G9A U10A C12U C13G,1.2
7,U7C G9A U10A C12U C13A,1.16
8,U7A U10G U11C C12G C13U,1.34
9,U7A U10G U11C C12G C13G,1.11
10,U7A U10G U11C C12G C13A,1.13
11,U7C G9A U10G C13G,1.02
12,U7C G9A U10G C13A,1.19
13,U7C G9A U10G C13U,1.34
14,U7C G9A U11C C12G,1.22
15,U7C G9A U11C C12A,1.2
16,U7C G9A U11C C12U,1.17
17,U7C G9A U11C C13A,1.07
18,U7C G9A U11C C13U,1.06
19,U7C G9A U11C C13G,1.04
20,U7A U10G U11C C12U C13U,1.21
21,U7A U10G U11C C12U C13A,1.3
22,U7A U10G U11C C12U C13G,1.41
23,U7C G9A U10G U11A C13G,1.04
24,U7C G9A U10G U11A C13U,1.03

row,Variant,aptazyme ON/OFF ratio
1,U7C G9A U10G U11A C13A,1.06
2,U7A U11G C12U C13G,1.06
3,U7A U11G C12U C13U,1.13
4,U7A U11G C12U C13A,1.15
5,U7C G9A U11A C12U C13A,1.07
6,U7C G9A U11A C12U C13U,1.3
7,U7C G9A U11A C12U C13G,1.09
8,U7C G9A U10C U11G C12G,1.28
9,U7C G9A U10C U11G C12A,1.28
10,U7C G9A U10C U11G C12U,1.45
11,U7A U11A C13A,1.13
12,U7A U11A C13G,1.16
13,U7A U11A C13U,1.13
14,U7A U10G U11G C12A C13U,1.22
15,U7A U10G U11G C12A C13G,1.16
16,U7A U10G U11G C12A C13A,1.19
17,U7C G9A C12U C13A,1.22
18,U7C G9A C12U C13U,1.22
19,U7C G9A C12U C13G,1.18
20,U7A U11A C12U C13U,1.31
21,U7A U11A C12U C13G,1.36
22,U7A U11A C12U C13A,1.26
23,U7C G9A U10C U11A C12A,1.27
